These results are taken from the supplement of paper PMC5998384.

Data set [1] relates to HeLa Kyoto. The data set can be described thus: solubility in G1/S (NP-40 vs SDS abundance) (log2 ratio); higher = more soluble. The settings on record: cell cycle stage: G1/S.
For data set [2], the system named is HeLa Kyoto. The data set can be described thus: melting temperature (median over replicates), in situ; higher = more thermally stable.
In data set [3] the test system is HeLa Kyoto. Briefly: solubility change mitosis vs G1/S (difference of NP-40 vs SDS log2 ratios) (log2 ratio difference); higher = more soluble in mitosis.
Data set [4] relates to HeLa Kyoto. Briefly: thermal stability score vs G1/S (z-score of summed log2 fold changes over temperatures); higher = more thermally stable than in G1/S.
Setting [5] is: cell cycle stage: early G1 (4.5 h after nocodazole release).
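Wherever melting temperature (median over replicates), in situ is given: HeLa Kyoto cells synchronized by double thymidine or nocodazole block, proteins quantified by TMT10plex mass spectrometry, three independent biological replicates.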
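Wherever solubility change mitosis vs G1/S (difference of NP-40 vs SDS log2 ratios) is given: synchronized HeLa Kyoto cells (double thymidine block for G1/S, nocodazole release for mitosis), protein amounts in NP-40 versus SDS lysates quantified by mass spectrometry, three biological replicates.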
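Wherever solubility in G1/S (NP-40 vs SDS abundance) is given: HeLa Kyoto cells arrested at G1/S by double thymidine block, proteins quantified by TMT10plex mass spectrometry in mild NP-40 versus SDS extracts, three biological replicates.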
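Wherever thermal stability score vs G1/S (z-score of summed log2 fold changes over temperatures) is given: synchronized HeLa Kyoto cells, proteins quantified by TMT10plex mass spectrometry, three biological replicates, mitosis taken 0.5 h after nocodazole release, G1/S directly after double thymidine block.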

“MVLAELYVSDREGSDATGDGTKEKPFKTGLKALMTVGKEPFPTIYVDSQKENERWNVISKSQLKNIKKMWHREQMKSESREKKEAEDSLRREKNLEEAKKITIKNDPSLPEPKCVKIGALEGYRGQRVKVFGWVHRLRRQGKNLMFLVLRDGTGYLQCVLADELCQCYNGVLLSTESSVAVYGMLNLTPKGKQAPGGHELSCDFWELIGLAPAGGADNLINEESDVDVQLNNRHMMIRGENMSKILKARSMVTRCFRDHFFDRGYYEVTPPTLVQTQVEGGATLFKLDYFGEEAFLTQSSQLYLETCLPALGDVFCIAQSYRAEQSRTRRHLAEYTHVEAECPFLTFDDLLNRLEDLVCDVVDRILKSPAGSIVHELNPNFQPPKRPFKRMNYSDAIVWLKEHDVKKEDGTFYEFGEDIPEAPERLMTDTINEPILLCRFPVEIKSFYMQRCPEDSRLTESVDVLMPNVGEIVGGSMRIFDSEEILAGYKREGIDPTPYYWYTDQRKYGTCPHGGYGLGLERFLTWILNRYHIRDVCLYPRFVQRCTP [NARS]”: the “solubility in G1/S (log2)” value in the data set on HeLa Kyoto [1] was -0.0613. Further, the melting temperature in the data set on HeLa Kyoto [2] (cell cycle stage: G1/S) was determined as 52.6 °C; in the data set on HeLa Kyoto [2] (cell cycle stage: mitosis), 53.1 °C. Also, the “solubility change mitosis (log2)” value with HeLa Kyoto [3] is -0.124. Besides, the thermal stability score was found to be 3.39 in the data set with HeLa Kyoto [4] (setting [5]) and 4 with HeLa Kyoto [4] (cell cycle stage: mitosis).
“MTTKRSLFVRLVPCRCLRGEEETVTTLDYSHCSLEQVPKEIFTFEKTLEELYLDANQIEELPKQLFNCQSLHKLSLPDNDLTTLPASIANLINLRELDVSKNGIQEFPENIKNCKVLTIVEASVNPISKLPDGFSQLLNLTQLYLNDAFLEFLPANFGRLTKLQILELRENQLKMLPKTMNRLTQLERLDLGSNEFTEVPEVLEQLSGLKEFWMDANRLTFIPGFIGSLKQLTYLDVSKNNIEMVEEGISTCENLQDLLLSSNSLQQLPETIGSLKNITTLKIDENQLMYLPDSIGGLISVEELDCSFNEVEALPSSIGQLTNLRTFAADHNYLQQLPPEIGSWKNITVLFLHSNKLETLPEEMGDMQKLKVINLSDNRLKNLPFSFTKLQQLTAMWLSDNQSKPLIPLQKETDSETQKMVLTNYMFPQQPRTEDVMFISDNESFNPSLWEEQRKQRAQVAFECDEDKDEREAPPREGNLKRYPTPYPDELKNMVKTVQTIVHRLKDEETNEDSGRDLKPHEDQQDINKDVGVKTSESTTTVKSKVDEREKYMIGNSVQKISEPEAEISPGSLPVTANMKASENLKHIVNHDDVFEESEELSSDEEMKMAEMRPPLIETSINQPKVVALSNNKKDDTKETDSLSDEVTHNSNQNNSNCSSPSRMSDSVSLNTDSSQDTSLCSPVKQTHIDINSKIRQEDENFNSLLQNGDILNSSTEEKFKAHDKKDFNLPEYDLNVEERLVLIEKSVDSTATADDTHKLDHINMNLNKLITNDTFQPEIMERSKTQDIVLGTSFLSINSKEETEHLENGNKYPNLESVNKVNGHSEETSQSPNRTEPHDSDCSVDLGISKSTEDLSPQKSGPVGSVVKSHSITNMEIGGLKIYDILSDNGPQQPSTTVKITSAVDGKNIVRSKSATLLYDQPLQVFTGSSSSSDLISGTKAIFKFDSNHNPEEPNIIRGPTSGPQSAPQIYGPPQYNIQYSSSAAVKDTLWHSKQNPQIDHASFPPQLLPRSESTENQSYAKHSANMNFSNHNNVRANTAYHLHQRLGPARHGEMWAISPNDRLIPAVTRSTIQRQSSVSSTASVNLGDPGSTRRAQIPEGDYLSYREFHSAGRTPPMMPGSQRPLSARTYSIDGPNASRPQSARPSINEIPERTMSVSDFNYSRTSPSKRPNARVGSEHSLLDPPGKSKVPRDWREQVLRHIEAKKLEKKHPQTSSSGDPCQDGIFISGQQNYSSATLSHKDVPPDSLMKMPLSNGQMGQPLRPQANYSQIHHPPQASVARHPSREQLIDYLMLKVAHQPPYTQPHCSPRQGHELAKQEIRVRVEKDPELGFSISGGVGGRGNPFRPDDDGIFVTRVQPEGPASKLLQPGDKIIQANGYSFINIEHGQAVSLLKTFQNTVELIIVREVSS [ERBB2IP]”: in the data set on HeLa Kyoto [1], the “solubility in G1/S (log2)” value was -0.0185. Besides, the melting temperature in the data set on HeLa Kyoto [2] (cell cycle stage: G1/S) came to 48.8 °C; in the data set with HeLa Kyoto [2] (cell cycle stage: mitosis) it was 49 °C. In addition, in the data set with HeLa Kyoto [3], the “solubility change mitosis (log2)” value is -0.0785. In addition, the thermal stability score in the data set with HeLa Kyoto [4] (setting [5]) worked out at 0.246; in the data set with HeLa Kyoto [4] (cell cycle stage: mitosis) it was 1.12.
On to “MSGPRPVVLSGPSGAGKSTLLKRLLQEHSGIFGFSVSHTTRNPRPGEENGKDYYFVTREVMQRDIAAGDFIEHAEFSGNLYGTSKVAVQAVQAMNRICVLDVDLQGVRNIKATDLRPIYISVQPPSLHVLEQRLRQRNTETEESLVKRLAAAQADMESSKEPGLFDVVIINDSLDQAYAELKEALSEEIKKAQRTGA [GUK1]”, for which, in the data set with HeLa Kyoto [1], the “solubility in G1/S (log2)” value stood at 0.604. In addition, the melting temperature with HeLa Kyoto [2] (cell cycle stage: G1/S) came to 48.9 °C; in the data set with HeLa Kyoto [2] (cell cycle stage: mitosis), 50.2 °C. Further, the “solubility change mitosis (log2)” value in the data set on HeLa Kyoto [3] was found to be 0.047. Further, the thermal stability score in the data set on HeLa Kyoto [4] (setting [5]) was -0.1; with HeLa Kyoto [4] (cell cycle stage: mitosis), -0.804.
“MAAAANSGSSLPLFDCPTWAGKPPPGLHLDVVKGDKLIEKLIIDEKKYYLFGRNPDLCDFTIDHQSCSRVHAALVYHKHLKRVFLIDLNSTHGTFLGHIRLEPHKPQQIPIDSTVSFGASTRAYTLREKPQTLPSAVKGDEKMGGEDDELKGLLGLPEEETELDNLTEFNTAHNKRISTLTIEEGNLDIQRPKRKRKNSRVTFSEDDEIINPEDVDPSVGRFRNMVQTAVVPVKKKRVEGPGSLGLEESGSRRMQNFAFSGGLYGGLPPTHSEAGSQPHGIHGTALIGGLPMPYPNLAPDVDLTPVVPSAVNMNPAPNPAVYNPEAVNEPKKKKYAKEAWPGKKPTPSLLI [PPP1R8]”: the “solubility in G1/S (log2)” value in the data set with HeLa Kyoto [1] was determined as 0.0809. The melting temperature amounted to 50.4 °C in the data set with HeLa Kyoto [2] (cell cycle stage: G1/S) and 51.2 °C in the data set with HeLa Kyoto [2] (cell cycle stage: mitosis). Also, in the data set with HeLa Kyoto [3], the “solubility change mitosis (log2)” value was -0.0793. The values for the thermal stability score in the data set with HeLa Kyoto [4] (setting [5]) and in the data set on HeLa Kyoto [4] (cell cycle stage: mitosis) were 0.0118 and -0.547, respectively.
As for “MSGCRVFIGRLNPAAREKDVERFFKGYGRIRDIDLKRGFGFVEFEDPRDADDAVYELDGKELCSERVTIEHARARSRGGRGRGRYSDRFSSRRPRNDRRNAPPVRTENRLIVENLSSRVSWQDLKDFMRQAGEVTFADAHRPKLNEGVVEFASYGDLKNAIEKLSGKEINGRKIKLIEGSKRHSRSRSRSRSRTRSSSRSRSRSRSRSRKSYSRSRSRSRSRSRSKSRSVSRSPVPEKSQKRGSSSRSKSPASVDRQRSRSRSRSRSVDSGN [SRSF5]”, the “solubility in G1/S (log2)” value in the data set with HeLa Kyoto [1] was -0.33. In addition, the melting temperature with HeLa Kyoto [2] (cell cycle stage: G1/S) came out at 51.3 °C; with HeLa Kyoto [2] (cell cycle stage: mitosis) it was 51.5 °C. The “solubility change mitosis (log2)” value in the data set on HeLa Kyoto [3] stood at 0.302. Moreover, the thermal stability score was 1.65 in the data set on HeLa Kyoto [4] (setting [5]) and -4.18 in the data set with HeLa Kyoto [4] (cell cycle stage: mitosis).
